Measurements reported in patent US20250242021A1 (published 2025).

Legend:
[1] = target: T1, minor histocompatibility antigen (miHA) HA-1, 'H' epitope peptide on HLA-A*02:06 (human); experiment: activation reporter or marker
T1 peptide: VLHDDLLEA

[2] = target: T2, minor histocompatibility antigen (miHA) HA-1, 'R' epitope (non-target allelic variant) peptide on HLA-A*02:01 (human); experiment: killing
T2 peptide: VLRDDLLEA

[3] = target: T3, minor histocompatibility antigen (miHA) HA-1, 'H' epitope peptide on HLA-A*02:01 (human); experiment: killing
T3 peptide: VLHDDLLEA

B1: anti-HA-1 'H' epitope TCR (TCR, V domains shown)
Valpha: AQSVAQPEDQVNVAEGNPLTVKCTYSVSGNPYLFWYVQYPNRGLQFLLKYITGDNLVKGSYGFEAEFNKSQTSFHLKKPSALVSDSALYFCAVRAPTSGTYKYIFGTGTRLKVLA
Vbeta: DTGVSQDPRHKITKRGQNVTFRCDPISEHNRLYWYRQTLGQGPEFLTYFQNEAQLEKSRLLSDRFSAERPKGSFSTLEIQRTEQGDSAMYLCASSLVSGNEQFFGPGTRLTVL
B1: recognises [1]; no recognition [2]; recognises [3].
